Laboratory results published in patent publication US8124586 (DYAX, dated 2012).

What was measured:
[1] = biological target: T1, human plasma kallikrein (human, UniProt P03952 20-638); experiment: ratio of Ki,app values, reference aprotinin
T1 construct: The active enzyme comes from the zymogen prekallikrein

[2] = biological target: human plasma factor XIa (human, UniProt P03951 19-625); experiment: protease inhibition, Ki,app
[3] = biological target: porcine pancreatic kallikrein (porcine, UniProt P00752 8-246); experiment: protease inhibition, Ki,app
[4] = biological target: human plasmin (human, UniProt P00747 97-810, limits assumed); experiment: protease inhibition, Ki,app
[5] = biological target: T1, human plasma kallikrein; experiment: protease inhibition, Ki,app

T1 sequence (P03952 20-638 limits assumed): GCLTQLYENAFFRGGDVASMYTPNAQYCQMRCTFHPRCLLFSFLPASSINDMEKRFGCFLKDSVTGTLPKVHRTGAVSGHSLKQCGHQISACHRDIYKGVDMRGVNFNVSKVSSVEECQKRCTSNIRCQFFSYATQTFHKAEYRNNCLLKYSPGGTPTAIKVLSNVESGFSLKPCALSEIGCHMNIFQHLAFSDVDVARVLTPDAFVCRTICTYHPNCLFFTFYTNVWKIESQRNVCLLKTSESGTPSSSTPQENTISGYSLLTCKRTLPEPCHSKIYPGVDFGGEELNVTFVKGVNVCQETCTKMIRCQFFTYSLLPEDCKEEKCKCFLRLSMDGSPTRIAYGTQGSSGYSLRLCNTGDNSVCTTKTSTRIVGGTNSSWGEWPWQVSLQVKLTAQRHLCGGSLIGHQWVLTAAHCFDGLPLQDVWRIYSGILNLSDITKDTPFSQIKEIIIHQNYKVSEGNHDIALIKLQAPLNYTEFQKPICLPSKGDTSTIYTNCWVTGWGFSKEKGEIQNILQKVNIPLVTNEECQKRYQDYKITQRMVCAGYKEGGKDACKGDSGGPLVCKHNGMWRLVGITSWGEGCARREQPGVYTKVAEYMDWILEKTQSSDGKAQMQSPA
Sequence of porcine pancreatic kallikrein (P00752 8-246): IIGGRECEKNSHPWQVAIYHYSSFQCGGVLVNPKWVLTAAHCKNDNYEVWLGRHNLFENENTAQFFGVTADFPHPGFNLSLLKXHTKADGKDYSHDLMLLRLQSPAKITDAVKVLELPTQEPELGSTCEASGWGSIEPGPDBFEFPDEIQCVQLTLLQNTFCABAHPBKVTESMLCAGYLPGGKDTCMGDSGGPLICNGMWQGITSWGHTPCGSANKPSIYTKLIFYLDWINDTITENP
Sequence of human plasmin (P00747 97-810 limits assumed): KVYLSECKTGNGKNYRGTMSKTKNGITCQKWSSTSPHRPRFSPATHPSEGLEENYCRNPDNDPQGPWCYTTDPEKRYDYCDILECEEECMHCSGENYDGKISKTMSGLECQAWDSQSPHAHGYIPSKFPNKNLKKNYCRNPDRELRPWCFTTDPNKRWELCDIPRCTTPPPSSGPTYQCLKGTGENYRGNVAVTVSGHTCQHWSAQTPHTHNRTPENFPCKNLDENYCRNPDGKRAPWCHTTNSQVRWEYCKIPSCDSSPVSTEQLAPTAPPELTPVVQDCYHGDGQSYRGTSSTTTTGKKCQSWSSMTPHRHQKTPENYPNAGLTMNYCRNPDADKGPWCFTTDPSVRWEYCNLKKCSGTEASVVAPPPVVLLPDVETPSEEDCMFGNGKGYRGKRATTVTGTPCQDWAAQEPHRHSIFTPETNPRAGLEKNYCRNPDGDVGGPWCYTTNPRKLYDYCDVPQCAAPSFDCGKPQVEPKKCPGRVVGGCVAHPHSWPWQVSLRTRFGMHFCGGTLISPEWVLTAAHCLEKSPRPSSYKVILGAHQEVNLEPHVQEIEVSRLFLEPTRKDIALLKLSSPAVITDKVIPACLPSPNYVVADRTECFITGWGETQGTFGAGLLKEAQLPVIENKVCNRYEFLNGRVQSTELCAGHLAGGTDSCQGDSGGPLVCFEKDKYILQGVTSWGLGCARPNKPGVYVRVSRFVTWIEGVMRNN

B1: PEP-1 KI polypeptide (designed binder)
chain: EAMHSFCAFKADDGPCRAAHPRWFFNIFTRQCEEFIYGGCEGNQNRFESLEECKKMCTRD
notes: Non-naturally occurring Kunitz domain polypeptide from a phage display library; Molecular weight 7,054 Daltons
- fold higher affinity (Ki,app) than aprotinin [1]: 1000 fold
- Ki [2]: 10 nM
- Ki [3]: 27000 nM
- Ki [4]: 140 nM
- Ki [5]: 0.044 nM
